Laboratory results taken from article PMC10371975, “Potential of Y. lipolytica epoxide hydrolase for efficient production of enantiopure (R)-1,2-octanediol” (AMB Express, 2023).

Substrate: CCCCCCC1CO1
Assay: purified protein
Type: biochemical, Yarrowia lipolytica
Conditions: 50 mM Tris-sulphate pH 8.0, 30 °C, 0.1-0.7 mM EO, 1 µg enzyme

B1: Yleh (Yarrowia lipolytica CLIB122) (protein)
chain: MTDSLSLGYYQLFHKYAVLGDKRWHYLDIPPTSPSPALLGSGKTLMLCHGFPDSWYGWRKQIPILRNLGYRLLVPSQMGYTRSEAPLYPTPEPNEKGEYPELGLEDGTDALKDLYCYTGKFYAQCMDELLTQLGIPTVTIIGHDYGAYLGPKLYLYFPHRVEAIATSCWHYVPALKKFFAIPDFIKLAPSLSYQAYLIGDASKDFATREGSEPFLRQVFGGEGWGGSDSSVHMTEPEFQNYMTEFATGGRFLSYMVSTYKARRLTFEIEKQDFLDKGRTPESMQVDVPYLHVGAEQDMAFRPPMIKNLRKYVKPGRLDEVWIDASHWLMFEKADEFNHELVKWLDKIHGSQSKL
notes: recombinant full-length 354-residue protein (ORF 1065 bp), pET28a+ vector, E. coli BL21AI host, Ni-NTA plus size exclusion purification (His tag implied); distinct from bifunctional Ylehd of the same yeast
- Km: 430 ± 17 µM
- kcat: 3.3458 ± 0.2163 s⁻¹
